These results are taken from paper PMC10922565 (Cell chemical biology, 2023).

Holding throughout (experiment): flow cytometry on cells
On the technique in general: A flow cytometer gives signals particle by particle.

Test [1] concerns the target mouse CD98hc expressed on REN cells (Mus musculus, UniProt P10852-2).
The target in test [2] is mouse TrkB expressed on REN cells (Mus musculus, UniProt P15209).
In test [3] the target is mouse TfR-1 expressed on REN cells (Mus musculus, UniProt Q62351).
Sequence of mouse TfR-1 expressed on REN cells (Q62351 whole entry): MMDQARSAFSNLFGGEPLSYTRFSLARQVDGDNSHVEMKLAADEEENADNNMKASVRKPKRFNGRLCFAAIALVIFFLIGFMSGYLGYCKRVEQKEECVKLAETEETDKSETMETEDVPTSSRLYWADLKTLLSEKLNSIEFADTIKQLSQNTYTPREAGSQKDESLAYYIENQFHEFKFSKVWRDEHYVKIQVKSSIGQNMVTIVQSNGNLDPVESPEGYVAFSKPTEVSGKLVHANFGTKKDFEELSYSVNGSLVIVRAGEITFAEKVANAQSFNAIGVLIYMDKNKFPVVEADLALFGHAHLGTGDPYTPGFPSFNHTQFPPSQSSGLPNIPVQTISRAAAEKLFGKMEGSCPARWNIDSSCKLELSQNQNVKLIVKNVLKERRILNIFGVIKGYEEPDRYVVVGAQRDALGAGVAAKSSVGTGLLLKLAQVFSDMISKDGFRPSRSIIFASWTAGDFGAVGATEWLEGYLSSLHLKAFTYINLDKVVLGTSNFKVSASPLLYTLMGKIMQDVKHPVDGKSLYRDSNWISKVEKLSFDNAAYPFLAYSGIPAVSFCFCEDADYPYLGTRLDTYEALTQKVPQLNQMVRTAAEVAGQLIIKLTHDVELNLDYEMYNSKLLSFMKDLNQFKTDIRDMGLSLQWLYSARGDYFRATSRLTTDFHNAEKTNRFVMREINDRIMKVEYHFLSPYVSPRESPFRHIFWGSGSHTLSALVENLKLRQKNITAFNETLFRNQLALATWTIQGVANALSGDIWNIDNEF

Sequence of mouse TrkB expressed on REN cells (P15209 32-821): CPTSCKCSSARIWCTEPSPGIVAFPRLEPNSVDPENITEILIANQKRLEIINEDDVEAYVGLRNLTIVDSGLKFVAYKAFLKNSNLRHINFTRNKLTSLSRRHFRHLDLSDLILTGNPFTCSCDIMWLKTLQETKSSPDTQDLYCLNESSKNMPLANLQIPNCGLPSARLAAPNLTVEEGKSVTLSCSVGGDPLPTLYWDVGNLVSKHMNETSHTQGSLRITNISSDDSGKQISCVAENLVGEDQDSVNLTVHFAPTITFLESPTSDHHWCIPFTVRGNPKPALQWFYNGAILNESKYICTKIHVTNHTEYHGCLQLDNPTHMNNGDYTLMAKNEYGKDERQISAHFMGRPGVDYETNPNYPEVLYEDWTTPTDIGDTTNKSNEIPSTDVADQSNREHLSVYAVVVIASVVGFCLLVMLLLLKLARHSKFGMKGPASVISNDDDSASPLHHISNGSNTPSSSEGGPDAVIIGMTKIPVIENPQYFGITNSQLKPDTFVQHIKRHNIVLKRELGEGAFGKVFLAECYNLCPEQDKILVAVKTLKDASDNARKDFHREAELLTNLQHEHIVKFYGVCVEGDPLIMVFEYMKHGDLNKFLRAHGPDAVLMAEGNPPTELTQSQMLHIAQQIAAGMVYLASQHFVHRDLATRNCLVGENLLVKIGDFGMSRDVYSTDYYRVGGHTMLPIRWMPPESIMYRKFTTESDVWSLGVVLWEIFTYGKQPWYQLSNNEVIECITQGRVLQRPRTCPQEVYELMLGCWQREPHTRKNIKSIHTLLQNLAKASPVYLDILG

B1: CD98hc IgG (antibody, V domains shown)
VH: EVQLVESGGGLVQPGRSLKLSCAASGFTFSDYYMAWVRQAPKKGLEWVASISYEGSSIYYGDSVKGRVTISRDNAKSTLYLQMNSLRSEDTATYYCARRGYYGYKPFDYWGQGVMVTVSS
VL: DIQMTQSPASLSASVGETVTIECRASEDIYNGLAWYQQKPGKSPQLLIYNIDNLHTGVPSRFSGSGSGTQYSLKINSLQSEDVASYFCQQYYTYAYTFGAGTKLELK
Consider B1, for which the EC50 (commonly the concentration giving half of the maximal effect) in test [1] came out at 1.9 nM. In other words, the single-digit nanomolar range.

B2: 29D7 (TrkB-IgG) (antibody, V domains shown)
VH: EVQLVESGGGLVQPGGSLRLSCAASGYSFTAYFMNWVRQAPGKGLEWVARINPNNGDTFYTQKFKGRFTISRDNAKNSLYLQMNSLRAEDTAVYYCARRDYFGAMDYWGQGTLVTVSS
VL: DIQMTQSPSSLSASVGDRVTITCRASQTISNNLHWYQQKPGKAPKLLIKSASLAISGVPSRFSGSGSGTDFTLTISSLQPEDFATYYCQQSNSWPNTFGGGTKVEIK
Turning to B2, the binding result in test [2] was “binds”.

B3: TfR-1 IgG (clone 8D3) (antibody, V domains shown)
VH: EVQLVESGGGLVQPGNSLTLSCVASGFTFSNYGMHWIRQAPKKGLEWIAMIYYDSSKMNYADTVKGRFTISRDNSKNTLYLEMNSLRSEDTAMYYCAVPTSHYVVDVWGQGVSVTVSS
VL: DIQMTQSPASLSASLEEIVTITCQASQDIGNWLAWYQQKPGKSPQLLIYGATSLADGVPSRFSGSRSGTQFSLKISRVQVEDIGIYYCLQAYNTPWTFGGGTKLELK
In the case of B3, a half-maximal effect in test [3] (EC50) was put at 3.1 nM.
